# What was measured:
# Assay in all cases: cell_activity
# [1] = test system: ACAN12 TALEN pair (left and right, FokI homodimer) (synthetic construct); details: fibroblasts, day 3 SURVEYOR
# [2] = test system: p65 (RELA) TALEN pair (left and right) (synthetic construct); details: porcine zygotes, 10 ng/ul mRNA each TALEN, 16 of 56
# [3] = test system: DMDE7.1 TALEN pair (left and right, FokI homodimer) (synthetic construct); details: fibroblasts, day 3 SURVEYOR
# [4] = test system: btGDF83.1 TALEN pair (left and right) (synthetic construct); details: bovine fibroblasts, SURVEYOR; active at 30 and 37 C
# [5] = test system: DMDE6 TALEN pair (left and right) (synthetic construct); details: pig fibroblasts, day 3, co-transfected with DMDE7.1
substance,measurement,setting,value
ACAN12 target locus,activity (% chromosomes cleaved (NHEJ)),[1],25
p65 target locus,activity (% embryos with indels),[2],29
DMD exon 7 target locus,activity (% chromosomes cleaved (NHEJ)),[3],38
GDF8 exon 3 target locus,activity (% chromosomes cleaved (NHEJ)),[4],< 16
DMD exon 6 target locus,activity,[5],24 % NHEJ

# Source: patent US20120222143
